Data from patent publication US20070286806A1, “Methods and Compositions for Modulating a Steroid Receptor” (Mount Sinai Hospital, priority 2004, published 2007).

Biological target: T1, ERβ (Homo sapiens, UniProt Q92731)
T1 construct: expressed in transfected cells; host or cells: SHM (Syrian hamster myocyte) cells
Experiment: ERβ transactivation, 3xERE luciferase reporter in SHM cells
Type: cell-based
Details: 3xERE promoter
Procedure: FIG. 4. PSF inhibit transactivation of PR but not estrogen receptor (ER). (A) SHM cells were transient cotransfected with PRA or PRB expression vectors with or without increasing dose (0.05, 0.1 and 0.2 μg) of His-PSF, together with 3×PRE (upper) or MMTV (lower) luciferase reporter vector. Four hours after transfection, culture medium was replaced with fresh DMEM containing 10 nM progesterone and the incubation continued for at least 30 hours. (B) SHM cells were transiently cotransfected with ERα or ERβ expression vector with (0.2 μg) or without His-PSF, together with 3×ERE luciferase reporter vector. Four hours after transfection, culture medium was replaced with fresh DMEM with (solid bar) or without (empty bar) 10 nM estrodial and incubation continued for at least 30 hours. Luciferase activity was measured and normalized by β-galatosidase activity. […]
For immunoprecipitation of the endogenous PR and PSF, T47D cells cultured in 150 mm dishes were lysed in 800 μl NETN buffer containing 150 mM NaCl plus protease inhibitor cocktail. […] Gels were treated with Enhancer (NEN, Boston, US) dried and analyzed by autoradiography. • Cell culture and transient transfection: SHM cells and 293T cells were maintained in DMEM plus 5% FCS (Sigma) as described before (22). […] Luciferase activity was determined by using the luciferin reagent (Promega) according to manufacture's protocol. […]

T1 sequence (Q92731 whole entry, species assumed): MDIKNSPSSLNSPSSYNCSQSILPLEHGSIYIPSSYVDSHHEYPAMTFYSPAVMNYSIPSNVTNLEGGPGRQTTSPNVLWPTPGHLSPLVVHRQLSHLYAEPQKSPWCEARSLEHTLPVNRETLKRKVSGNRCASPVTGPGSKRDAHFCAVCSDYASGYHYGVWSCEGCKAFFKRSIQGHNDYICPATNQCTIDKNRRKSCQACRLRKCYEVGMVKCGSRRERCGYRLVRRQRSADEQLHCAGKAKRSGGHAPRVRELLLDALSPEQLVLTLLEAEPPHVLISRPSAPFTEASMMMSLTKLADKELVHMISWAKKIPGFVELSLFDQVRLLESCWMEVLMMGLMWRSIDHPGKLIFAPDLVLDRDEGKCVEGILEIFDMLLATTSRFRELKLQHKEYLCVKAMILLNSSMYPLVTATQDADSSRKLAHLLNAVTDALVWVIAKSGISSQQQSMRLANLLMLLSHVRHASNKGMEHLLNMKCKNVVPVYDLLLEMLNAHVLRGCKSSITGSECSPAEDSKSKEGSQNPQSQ

B1: polypyrimidine tract binding protein-associated splicing factor (protein)
chain: MSRDRFRSRGGGGGGFHRRGGGGGRGGLHDFRSPPPGMGLNQNRGPMGPGPGQSGPKPPIPPPPPHQQQQQPPPQQPPPQQPPPHQPPPHPQPHQQQQPPPPPQDSSKPVVAQGPGPAPGVGSAPPASSSAPPATPPTSGAPPGSGPGPTPTPPPAVTSAPPGAPPPTPPSSGVPTTPPQAGGPPPPPAAVPGPGPGPKQGPGPGGPKGGKMPGGPKPGGGPGLSTPGGHPKPPHRGGGEPRGGRQHHPPYHQQHHQGPPPGGPGGRSEEKISDSEGFKANLSLLRRPGEKTYTQRCRLFVGNLPADITEDEFKRLFAKYGEPGEVFINKGKGFGFIKLESRALAEIAKAELDDTPMRGRQLRVRFATHAAALSVRNLSPYVSNELLEEAFSQFGPIERAVVIVDDRGRSTGKGIVEFASKPAARKAFERCSEGVFLLTTTPRPVIVEPLEQLDDEDGLPEKLAQKNPMYQKERETPPRFAQHGTFEYEYSQRWKSLDEMEKQQREQVEKNMKDAKDKLESEMEDAYHEHQANLLRQDLMRRQEELRRMEELHNQEMQKRKEMQLRQEEERRRREEEMMIRQREMEEQMRRQREESYSRMGYMDPRERDMRMGGGGAMNMGDPYGSGGQKFPPLGGGGGIGYEANPGVPPATMSGSMMGSDMRTERFGQGGAGPVGGQGPRGMGPGTPAGYGRGREEYEGPNKKPRF
notes: expressed from transfected His-PSF vector or in vitro translated
inhibitory effects on ERβ: not observed
